# Data published in paper PMC3568146, “Very Late Antigen-4 (α4β1 Integrin) Targeted PET Imaging of Multiple Myeloma” (PLoS ONE, 2013).
# “Also recorded” adds a separate entry of the source. Like-named read-outs stand apart in the source and are kept apart here.
# Columns and labels:
# [1] = target: T1, VLA-4 (α4β1 integrin) on 5TGM1 murine myeloma cells (Mus musculus, UniProt P09055+Q00651); assay: In vitro saturation binding assay on 5TGM1 whole cells; details: tracer 0.5–15.5 nM, 2 h at 4°C, 1 mM Mn2+, N = 3
# T1 construct: was incubated with ∼250,000 5TGM1 (∼ 0.41 mg protein) whole cells; endogenous in cells; host or cells: 5TGM1 murine myeloma cells (whole cells)
# T1 sequence (Q00651 41-1039): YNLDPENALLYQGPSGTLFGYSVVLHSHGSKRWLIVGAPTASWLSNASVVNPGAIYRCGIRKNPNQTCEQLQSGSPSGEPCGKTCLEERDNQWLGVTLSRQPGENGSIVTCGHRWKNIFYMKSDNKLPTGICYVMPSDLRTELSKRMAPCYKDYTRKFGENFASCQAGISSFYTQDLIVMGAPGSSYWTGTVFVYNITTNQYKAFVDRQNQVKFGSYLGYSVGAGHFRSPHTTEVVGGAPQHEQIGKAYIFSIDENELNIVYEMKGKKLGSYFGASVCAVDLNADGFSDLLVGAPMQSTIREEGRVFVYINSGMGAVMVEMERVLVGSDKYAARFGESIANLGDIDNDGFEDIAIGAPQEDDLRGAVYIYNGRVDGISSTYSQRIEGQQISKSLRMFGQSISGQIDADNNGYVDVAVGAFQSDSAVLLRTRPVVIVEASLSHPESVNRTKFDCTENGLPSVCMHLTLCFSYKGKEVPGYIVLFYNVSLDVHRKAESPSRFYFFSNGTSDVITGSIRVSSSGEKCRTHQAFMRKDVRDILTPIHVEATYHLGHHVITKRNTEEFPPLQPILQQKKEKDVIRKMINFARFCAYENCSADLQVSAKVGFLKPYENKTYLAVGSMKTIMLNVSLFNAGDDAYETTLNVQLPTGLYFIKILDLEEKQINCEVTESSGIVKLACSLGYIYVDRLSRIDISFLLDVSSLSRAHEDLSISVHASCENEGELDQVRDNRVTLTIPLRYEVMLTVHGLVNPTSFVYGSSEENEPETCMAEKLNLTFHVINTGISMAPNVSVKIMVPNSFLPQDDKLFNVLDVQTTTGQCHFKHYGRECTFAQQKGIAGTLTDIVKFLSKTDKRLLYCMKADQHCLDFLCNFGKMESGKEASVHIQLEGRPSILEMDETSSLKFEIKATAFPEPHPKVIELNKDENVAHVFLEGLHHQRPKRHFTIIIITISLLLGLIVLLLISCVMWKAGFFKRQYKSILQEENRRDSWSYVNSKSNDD
# T1 sequence (P09055 21-798): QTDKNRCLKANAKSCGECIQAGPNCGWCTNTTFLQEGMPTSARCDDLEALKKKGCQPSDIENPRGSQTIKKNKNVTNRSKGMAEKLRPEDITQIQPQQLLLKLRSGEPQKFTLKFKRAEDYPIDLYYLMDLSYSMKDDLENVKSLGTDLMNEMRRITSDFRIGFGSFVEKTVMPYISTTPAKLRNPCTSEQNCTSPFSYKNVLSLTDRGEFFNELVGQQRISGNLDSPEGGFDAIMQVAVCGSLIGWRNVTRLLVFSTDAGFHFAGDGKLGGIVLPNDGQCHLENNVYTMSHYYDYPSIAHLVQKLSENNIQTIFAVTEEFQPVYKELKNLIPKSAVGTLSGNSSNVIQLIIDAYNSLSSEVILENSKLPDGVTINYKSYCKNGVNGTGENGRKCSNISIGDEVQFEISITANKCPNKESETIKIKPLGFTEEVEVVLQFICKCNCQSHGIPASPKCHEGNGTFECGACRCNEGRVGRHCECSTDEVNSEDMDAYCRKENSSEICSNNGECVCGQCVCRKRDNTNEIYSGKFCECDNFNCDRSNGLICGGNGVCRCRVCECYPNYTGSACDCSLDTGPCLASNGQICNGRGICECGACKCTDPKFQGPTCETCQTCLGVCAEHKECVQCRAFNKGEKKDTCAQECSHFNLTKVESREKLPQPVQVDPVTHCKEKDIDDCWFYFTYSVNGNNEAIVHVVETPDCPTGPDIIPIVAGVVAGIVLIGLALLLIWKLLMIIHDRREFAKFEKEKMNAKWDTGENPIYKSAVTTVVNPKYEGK
# Protocol: For saturation binding experiments, ^64Cu-CB-TE1A1P-LLP2A (0.5–15.5 nM) was incubated with ∼250,000 5TGM1 (∼ 0.41 mg protein) whole cells in 1.5 mL microfuge tubes for 2 h at 4°C in a total volume of 500 µL of binding medium (phosphate buffered saline [PBS], 0.1% bovine serum albumin [BSA] and 1 mM Mn^2+). The reaction tubes were put on a slow moving rotor during the 4°C incubation. After the incubation, samples were centrifuged at 1,500 rpm for 5 min, reaction buffer was removed by vacuum aspiration and the cells were washed two times with ice cold PBS. Non-specific binding was determined by conducting the assay in the presence of an excess (∼200 fold) unlabeled LLP2A. The radioactivity in the cell pellets was measured in a well counter (Packard II gamma counter). The specific binding was obtained by the subtraction of non-specific binding from total binding. The dissociation constant (Kd) and receptor density (Bmax) were estimated from the non-linear fitting of the specific binding versus the concentration of ^64Cu-CB-TE1A1P-LLP2A using Prism software (GraphPad, San Diego, CA).
# The in vitro binding affinity of ^64Cu-CB-TE1A1P-LLP2A was investigated by determining the equilibrium dissociation constant (Kd) and the maximum specific binding (Bmax) of the radiolabeled conjugate to 5TGM1 cells in saturation binding assays. […]
# 5TGM1 cells = assay: In vitro cell uptake assay, 5TGM1 cells; type: cell-based, mouse
# Protocol: (§1) Cell uptake assays were performed in murine 5TGM1 and human RPMI-8226 myeloma cells using ^64Cu-CB-TE1A1P-LLP2A to determine the sum of cell internalized and surface-bound fractions. Cells were grown in Iscoves MDM until 60−75% confluent, harvested by mechanical dissociation, and re-suspended in the binding medium (phosphate buffered saline [PBS], 0.1% bovine serum albumin [BSA] and 1 mM Mn^2+) in 1.5 mL microfuge tubes. A solution of ^64Cu-CB-TE1A1P-LLP2A (0.1 nM) was added to the cell suspension. The samples were incubated for 60 min in a cell incubator (37°C, 5% CO2). To determine the in vitro VLA-4 binding specificity of ^64Cu-CB-TE1A1P-LLP2A, samples were co-incubated with ∼200-fold excess of the unlabeled ligand, LLP2A. After incubation, the samples were centrifuged at 1,500 rpm for 5 min, and the radioactive medium was removed. Cell pellets were rinsed with ice cold binding buffer (500 µL) and centrifuged at 1,500 rpm for 3 min (2 X). The radioactivity in cell pellets was measured in a well counter (Packard II gamma counter).
# RPMI-8226 cells = assay: In vitro cell uptake assay, RPMI-8226 cells; type: cell-based, human; details: 0.1 nM tracer, 37°C, 60 min, 1 mM Mn2+, ~200-fold excess LLP2A, P<0.0001
# Protocol: as §1
# Binding of ^64Cu-CB-TE1A1P-LLP2A was evaluated in human MM cell line RPMI-8226 in vitro.
# [2] = Tissue biodistribution in 5TGM1 tumor-bearing KaLwRij mice; type: in vivo, mouse; details: mouse, iv, 0.01 ug, total radioactivity, 2 h post injection, s.c. 5TGM1 tumor KaLwRij mice, mean±SD, N = 4
# Protocol: (§2) KaLwRij mice (from Dr. Claire M. Edwards, Vanderbilt University Medical Center Cancer Biology, Nashville, TN) were housed in ventilated cage racks and allowed food and water. 5TGM1 cells in log phase growth were prepared for injection by precipitation in a centrifuge followed by a wash step with sterile endotoxin-free PBS. Finally, the cells were re-suspended in endotoxin-free PBS at a concentration of 1×10^6 cells/mL and injected with or without matrigel, respectively, in the nape of the neck subcutaneously (s.c.) or intraperitoneally (i.p.) in a 100 µL volume in 3–5 week old mice. The tumors were allowed to grow for an average of 10 d.
# (§3) 5TGM1 tumor bearing mice were sacrificed at 2 or 24 h after the injection of the radiopharmaceutical, ^64Cu-CB-TE1A1P-LLP2A. Blood, marrow, fat, heart, stomach, intestines, lungs, liver, spleen, kidneys, muscle, bone, pancreas, and tumor were harvested, weighed, and counted in the γ-counter. For the in vivo blocking studies, an additional group of mice was injected with the radiopharmaceutical premixed with ∼200-fold excess of LLP2A to serve as a blocking agent and sacrificed at the respective time point. The percent injected dose per gram of tissue (%ID/g) was determined by decay correction of the radiopharmaceutical for each sample normalized to a standard of known weight, which was representative of the injected dose.
# (§4) Figure 3 Tissue biodistribution of ^64Cu-CB-TE1A1P-LLP2A in 5TGM1 s.c. tumor mice. Biodistribution of ^64Cu-CB-TE1A1P-LLP2A in 5TGM1 s.c. tumor mice (black bars). The open bars represent biodistribution in the presence of non-radioactive blocking agent (∼ 200 fold excess LLP2A). Mice were injected with ^64Cu-CB-TE1A1P-LLP2A (0.01 µg, 0.2 MBq, SA: 37 MBq/µg) and sacrificed at 2 h post injection. N = 4 mice/group.
# 5TGM1 tumors [3] = assay: as above; type: in vivo, mouse; details: 2 h, co-administered ~200-fold excess cold LLP2A, p<0.05, N = 4
# Protocol: as §2, §3, §4
# [4] = Small animal PET/CT imaging in KaLwRij mice bearing 5TGM1 tumors; type: in vivo, mouse; details: KaLwRij, mouse, iv, total radioactivity
# Protocol: as §2
# (§5) Prior to small animal PET/CT imaging, mice were injected intravenously (tail vein) with ^64Cu-CB-TE1A1P-LLP2A (0.9 MBq (SA: 37 MBq/µg)). At 2 h post injection, mice were anaesthetized with 1–2% isoflurane and imaged with small animal PET (Focus 220 or Inveon (Siemens Medical Solutions, Knoxville,TN)), while the CT images were acquired with the Inveon. Static images were collected for 30 min and co-registered using the Inveon Research Workstation (IRW) software (Siemens Medical Solutions, Knoxville,TN). PET images were re-constructed with the maximum a posteriori (MAP) algorithm. The analysis of the small animal PET images was done using the IRW software. Regions of interest (ROI) were selected from PET images using CT anatomical guidelines and the activity associated with them was measured with IRW software. Maximum standard uptake values (SUVs) for both experiments were calculated using SUV = ([nCi/mL]x[animal weight (g)]/[injected dose (nCi)]). A set of mice was also imaged at 24 h post injection.
# (§6) To test the ability of ^64Cu-CB-TE1A1P-LLP2A to image MM, small animal PET/CT imaging was conducted in KaLwRij mice bearing 5TGM1 murine myeloma tumors. The following i.p. and s.c. 5TGM1 models were used for the proof-of-principle imaging studies: 1) a non-matrigel assisted s.c. (plasmacytoma) tumor in the flank of the mouse (Figure 4B); 2) a matrigel assisted s.c. tumor in the flank of the mouse (Figure 4C); and 3) tumor cells injected in the peritoneal (i.p.) cavity (Figure 4D). Figure 4 contains […] (B-D) representative maximum intensity projection (MIP) small animal PET images using ^64Cu-CB-TE1A1P-LLP2A (0.9 MBq, 0.05 µg, 27 pmol, SA: 37 MBq/µg) at 2 h post injection in the various models compared to a non-tumor-bearing control mouse (Figure 4A). […] The SUV of the tumor shown in Figure 4D was not determined due to the large tumor size and overlap with the spleen and bladder. The heterogeneous distribution of the imaging agent in Figure 4D likely corresponds with the heterogeneity of the tumor mass. The uptake of ^64Cu-CB-TE1A1P-LLP2A in i.p. tumors was determined to be 14.9±2.6%ID/g by post PET biodistribution (2 h post injection). […] We are currently investigating the imaging of myeloma induced spleen pathology (splenomegaly) in orthotopic (i.v.) 5TGM1 mouse models of MM.
# 5TGM1 tumors [5] = assay: as above; type: in vivo, mouse; details: 2 h post injection
# Protocol: as §2, §5, §6
structure (smiles),measurement,setting,value
"Cc1ccccc1NC(=O)Nc1ccc(CC(=O)N[C@@H](CCCCNC(=O)/C=C/c2cccnc2)C(=O)N[C@@H](CCCC(=O)O)C(=O)NC2(C(=O)NCCOCCOCCNC(=O)CCC(=O)NCCOCCOCCNC(=O)CCC(=O)N[C@@H](CCCCNC(=O)CN3CCCN4CCN(CCCN(CP(=O)(O)O)CC4)CC3)C(N)=O)CCCCC2)cc1 [64Cu-CB-TE1A1P-LLP2A, metal not drawn]","Bmax (maximum specific binding, receptor density)",[1],136 pmol/mg
same,"Cell uptake (internalized + surface-bound), block vs. non-block","5TGM1 cells; 0.1 nM tracer, 60 min, 37°C, PBS/0.1% BSA/1 mM Mn2+, with and without ~200-fold excess LLP2A, P<0.0001",receptor specific uptake; also recorded: significantly different; also recorded: significantly reduced
same,Cell uptake in the absence of receptor activating cation Mn2+,"5TGM1 cells; without Mn2+, data not shown",much lower binding
same,"Cell uptake in RPMI-8226 cells, with vs. without excess LLP2A",RPMI-8226 cells,significantly reduced; also recorded: significantly blocked
same,tissue uptake at 2 h,"[2]; i.v., 0.01 µg, 0.2 MBq, read-out: Tumor uptake (s.c. 5TGM1)",12 ± 4.5 %ID/g
same,tissue uptake at 2 h,"[2]; spleen, read-out: Spleen uptake",8.8 ± 1 %ID/g
same,"Uptake in tumor, spleen and bone in the presence of blocking agent",5TGM1 tumors [3],significantly reduced
same,SUV at 2 h,"[4]; spleen, 0.05 ug, 2 h post injection, 5TGM1 tumor bearing mice, read-out: Spleen SUV, tumor bearing mice",3.3 SUV
same,tissue to tissue ratio at 2 h,"[4]; tumor and muscle, 0.9 MBq, 2 h post injection, calculated from MIP image SUVs",28 ± 6
same,tissue to tissue ratio at 24 h,"[4]; tumor and muscle, 0.9 MBq, 24 h post injection, calculated from MIP image SUVs",161 ± 41
same,SUV at 2 h,"[4]; tumor, 0.05 ug, 2 h post injection, 0.9 MBq, 0.05 µg, 27 pmol, 5TGM1 tumors, mean±SD, N = 4, read-out: Tumor SUV (averaged maximum SUV from MIP PET images), no block",6.2 ± 1.1 SUV
same,SUV at 2 h,"[4]; tumor, 2 h post injection, ~200-fold excess LLP2A, mean±SD, N = 4, P<0.05, read-out: Tumor SUV in the presence of blocking agent",2.3 ± 0.4 SUV
same,"Spleen SUV, non-tumor bearing mouse",5TGM1 tumors [5]; non-tumor KaLwRij control mouse,2.2
same,Reduction in tumor SUV in the presence of blocking agent,"5TGM1 tumors [5]; ~200-fold excess LLP2A, P<0.05",3 fold
same,"Tumor SUV, early stage non-palpable s.c. 5TGM1 tumor without matrigel","5TGM1 tumors [5]; representative mouse, Figure 4B",2.24
same,"Tumor SUV, matrigel assisted s.c. 5TGM1 tumor","5TGM1 tumors [5]; representative mouse, Figure 4C",6.2
